Test results reported in article PMC1794554, “Multiplatform genome-wide identification and modeling of functional human estrogen receptor binding sites”.
Numbering of substitutions follows the chain as printed.

Assays:
Settings in all cases: chain copies: 2; label: 5'-biotin on the ERE strand; blunt
[1] = molecular target: T1, estrogen receptor alpha (ERα), purified (UniProt P03372 1-595); experiment: SPR; SPR: 40 mM HEPES-KOH pH 7.4, 10 mM MgCl2, 200 mM KCl, 0.2% Triton X-100, 2 mM DTT, room temperature; ERα 58-708 nM (relative binding averaged over concentrations)
[2] = molecular target: T1, estrogen receptor alpha (ERα), purified; experiment: SPR; not significantly perturbed; SPR: 40 mM HEPES-KOH pH 7.4, 10 mM MgCl2, 200 mM KCl, 0.2% Triton X-100, 2 mM DTT, room temperature; ERα 58-708 nM (relative binding averaged over concentrations)
[3] = molecular target: T1, estrogen receptor alpha (ERα), purified; experiment: SPR; binding disrupted by about 40%; SPR: 40 mM HEPES-KOH pH 7.4, 10 mM MgCl2, 200 mM KCl, 0.2% Triton X-100, 2 mM DTT, room temperature; ERα 58-708 nM (relative binding averaged over concentrations)

T1 sequence (P03372 whole entry): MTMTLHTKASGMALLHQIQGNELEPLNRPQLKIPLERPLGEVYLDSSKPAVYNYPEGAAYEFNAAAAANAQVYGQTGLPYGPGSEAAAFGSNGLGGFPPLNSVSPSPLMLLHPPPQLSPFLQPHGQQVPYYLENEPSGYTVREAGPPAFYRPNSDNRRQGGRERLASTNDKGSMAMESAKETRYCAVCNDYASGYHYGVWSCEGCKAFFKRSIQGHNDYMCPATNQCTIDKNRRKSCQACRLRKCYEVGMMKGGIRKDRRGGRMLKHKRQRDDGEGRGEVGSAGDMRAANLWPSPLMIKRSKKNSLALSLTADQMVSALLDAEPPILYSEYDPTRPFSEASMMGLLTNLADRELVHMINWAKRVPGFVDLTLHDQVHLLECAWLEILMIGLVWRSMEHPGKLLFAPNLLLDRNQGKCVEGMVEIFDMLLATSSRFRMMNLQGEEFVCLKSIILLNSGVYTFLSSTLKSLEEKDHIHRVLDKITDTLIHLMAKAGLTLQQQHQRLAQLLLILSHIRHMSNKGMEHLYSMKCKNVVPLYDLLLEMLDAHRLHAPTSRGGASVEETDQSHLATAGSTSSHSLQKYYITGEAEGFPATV

B1: GREB1 ERE wildtype (dsDNA)
DNA 1: TGTGGCAACTGGGTCATTCTGACCTAGAAGCAAC
DNA 2: GTTGCTTCTAGGTCAGAATGACCCAGTTGCCACA
For B1, the binding signal [1] was 100 % of wild type.

B2: mutant 4 (outside the 3-bp flank, C to G) (dsDNA)
DNA 1: B1 DNA 1 with C6G
DNA 2: B1 DNA 2 with G29C
B2: binds [2].

B3: mutant 1 (conserved 3' G to A) (dsDNA)
DNA 1: B1 DNA 1 with G27A
DNA 2: B1 DNA 2 with C8T
In the case of B3, the binding signal [3] is reported as ~60 % of wild type.
